This note sets out measurements from article PMC3943932 (Molecular cell, 2014).

Where two headings read alike, the source gives them in different places.

What all share (assay): pull-down
One assay addresses T1, purified GST-PDP1 Y381F (UniProt Q9P0J1 72-537, Y381F).
T1 sequence (looked up): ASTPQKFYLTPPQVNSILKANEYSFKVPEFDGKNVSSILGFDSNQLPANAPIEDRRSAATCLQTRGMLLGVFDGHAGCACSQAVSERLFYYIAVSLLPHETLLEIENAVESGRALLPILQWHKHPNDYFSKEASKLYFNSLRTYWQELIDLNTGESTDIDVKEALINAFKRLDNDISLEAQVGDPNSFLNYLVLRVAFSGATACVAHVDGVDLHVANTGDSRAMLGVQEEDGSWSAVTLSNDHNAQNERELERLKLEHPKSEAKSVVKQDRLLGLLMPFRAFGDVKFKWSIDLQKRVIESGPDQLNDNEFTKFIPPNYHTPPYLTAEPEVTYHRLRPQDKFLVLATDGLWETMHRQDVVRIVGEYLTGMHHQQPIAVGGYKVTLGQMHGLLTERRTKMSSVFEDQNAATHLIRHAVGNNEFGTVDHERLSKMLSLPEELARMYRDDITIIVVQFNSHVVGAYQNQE

Assay [1] has as its target T2, purified GST-PDK1 (UniProt Q15118 29-436).
Assay [2] concerns the target T2, purified GST-PDK1. This is another data set of the same source.

T2 sequence (Q15118 29-436): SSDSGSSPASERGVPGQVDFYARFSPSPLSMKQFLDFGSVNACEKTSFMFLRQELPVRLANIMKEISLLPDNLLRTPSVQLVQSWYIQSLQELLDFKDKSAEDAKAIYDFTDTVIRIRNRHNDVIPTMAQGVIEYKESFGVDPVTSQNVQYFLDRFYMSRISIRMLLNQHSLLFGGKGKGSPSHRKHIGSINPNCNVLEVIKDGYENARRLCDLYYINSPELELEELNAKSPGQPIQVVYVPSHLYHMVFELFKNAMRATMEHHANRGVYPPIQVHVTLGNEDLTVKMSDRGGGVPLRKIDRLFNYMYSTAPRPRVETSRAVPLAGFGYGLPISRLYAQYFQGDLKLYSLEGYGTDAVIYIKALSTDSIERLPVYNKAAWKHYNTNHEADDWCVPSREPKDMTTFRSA

B1: recombinant FLAG-ACAT1 (enzyme, UniProt P24752 34-427, looked up)
chain: VSKPTLKEVVIVSATRTPIGSFLGSLSLLPATKLGSIAIQGAIEKAGIPKEEVKEAYMGNVLQGGEGQAPTRQAVLGAGLPISTPCTTINKVCASGMKAIMMASQSLMCGHQDVMVAGGMESMSNVPYVMNRGSTPYGGVKLEDLIVKDGLTDVYNKIHMGSCAENTAKKLNIARNEQDAYAINSYTRSKAAWEAGKFGNEVIPVTVTVKGQPDVVVKEDEEYKRVDFSKVPKLKTVFQKENGTVTAANASTLNDGAAALVLMTADAAKRLNVTPLARIVAFADAAVEPIDFPIAPVYAASMVLKDVGLKKEDIAMWEVNEAFSLVVLANIKMLEIDPQKVNINGGAVSLGHPIGMSGARIVGHLTHALKQGEYGLASICNGGGGASAMLIQKL
Consider B1, for which the binding result with purified GST-PDP1 Y381F is given as “binds”.

B2: purified recombinant FLAG-PDHA1 K244R, incubated with NAM+TSA-treated H1299 cell lysates (enzyme, UniProt P08559 30-390, looked up)
chain: FANDATFEIKKCDLHRLEEGPPVTTVLTREDGLKYYRMMQTVRRMELKADQLYKQKIIRGFCHLCDGQEACCVGLEAGINPTDHLITAYRAHGFTFTRGLSVREILAELTGRKGGCAKGKGGSMHMYAKNFYGGNGIVGAQVPLGAGIALACKYNGKDEVCLTLYGDGAANQGQIFEAYNMAALWKLPCIFICENNRYGMGTSVERAAASTDYYRRGDFIPGLRVDGMDILCVREATRFAAAYCRSGKGPILMELQTYRYHGHSMSDPGVSYRTREEIQEVRSKSDPIMLLKDRMVNSNLASVEELKEIDVEVRKEIEDAAQFATADPEPPLEELGYHIYSSDPPFEVRGANQWIKFKSVS
modifications: lysine acetylation by the lysates (K321 is the site that the paper ties to PDK1 binding)
B2: the binding result with purified GST-PDK1 [1] is on record as “binds”.

B3: purified recombinant FLAG-PDHA1 K321R (enzyme, UniProt P08559 30-390, looked up)
chain: FANDATFEIKKCDLHRLEEGPPVTTVLTREDGLKYYRMMQTVRRMELKADQLYKQKIIRGFCHLCDGQEACCVGLEAGINPTDHLITAYRAHGFTFTRGLSVREILAELTGRKGGCAKGKGGSMHMYAKNFYGGNGIVGAQVPLGAGIALACKYNGKDEVCLTLYGDGAANQGQIFEAYNMAALWKLPCIFICENNRYGMGTSVERAAASTDYYKRGDFIPGLRVDGMDILCVREATRFAAAYCRSGKGPILMELQTYRYHGHSMSDPGVSYRTREEIQEVRSKSDPIMLLRDRMVNSNLASVEELKEIDVEVRKEIEDAAQFATADPEPPLEELGYHIYSSDPPFEVRGANQWIKFKSVS
Turning to B3, in the assay with purified GST-PDK1 [2], the binding result is recorded as “binds”.
